In one experiment the target is HER2-Fc (R&D Systems) (UniProt P04626). As to the kind of experiment: SPR (Biacore T200), HER2-Fc amine-coupled to a CM5 chip, Fab flowed over; ± is the SD of three runs. Background: Surface plasmon resonance follows binding to a sensor surface in real time, without labels.
Experiment [1] deals with Her2 (antigen in the SPR of Example 1, FIG. 14) (UniProt P04626). The experiment can be described thus: SPR.
The target in another experiment is HER2 on SKBR3 cells (UniProt P04626). As to the kind of experiment: Flow cytometry on SKBR3 cells with 10 nM complex on ice and an AF488 secondary antibody. The other quadrants are printed as Q1 1.19, Q3 0 and Q4 0.18.
Experiment [2] deals with mutated I83 trastuzumab memAb (I83E). The experiment can be described thus: SPR at 37° C., meditope over immobilised I83E trastuzumab memAb.
For experiment [3], the target named is original trastuzumab memAb (meditope-enabled trastuzumab, I83 in the light chain). The experiment can be described thus: SPR at 37° C., meditope over immobilised original trastuzumab memAb.

As usually defined, the Kd is a measure of binding affinity in units of concentration. One may read the koff as the first-order rate constant of dissociation. By kon is commonly meant the second-order rate constant of association. A lower kon goes with slower complex formation. On to “Trastuzumab I83E Fab (meditope-enabled trastuzumab V2 Fab)”, for which, in the experiment with HER2-Fc (R&D Systems), the Kd came out at 0.863 nM, the koff was determined as 0.000674 s⁻¹ and the on-rate (kon) came out at 1.04e+06 M⁻¹ s⁻¹. In experiment [1], the Kd came out at 0.055 nM, the off-rate constant (koff) came out at 0.00021 s⁻¹ and the kon worked out at 3.8e+06 M⁻¹ s⁻¹.
For the substance “A175C meFab conjugated to the AlexaFluor647 thiopyridine-meditope”, the Q2 (share of events positive for both the AF647 meditope and the AF488 secondary antibody) in the experiment with HER2 on SKBR3 cells was 98.6.
In the experiment with HER2-Fc (R&D Systems), Trastuzumab I83E, A175C Fab registered a Kd of 0.296 nM, a koff of 0.000378 s⁻¹ and an on-rate (kon) of 1.28e+06 M⁻¹ s⁻¹.
“5-diphenylalanine meditope (FIG. 3) (peptide)” yielded a Kd in experiment [2] of 0.86 nM.
original meditope, Ac-…-Am (peptide): the Kd in experiment [2] is 38 nM; in experiment [3] it was 1000 nM.

Source of the values: patent US20200368364A1, “CYSTEINE PEPTIDE-ENABLED ANTIBODIES” (City of Hope, priority 2016, published 2020).
